Patent US20230220042A1 (SHANGHAI JIAO TONG UNIVERSITY SCHOOL OF MEDICINE, published 2023)

How the values were obtained:
[1] = target: Biotin-FcγRIIB (human FcγRIIB, Sino Biological) (human) (UniProt P31994); assay: flow cytometry, 3T3 cells displaying the antibody, biotin-FcγRIIB
[2] = target: Biotin-FcγRIIB (human FcγRIIB, Sino Biological) (human) (UniProt P31994); assay: NGS after FACS sort of 3T3-displayed Library2 for biotin-FcγRIIB binding
[3] = target: Biotin-FcγRIIB (human FcγRIIB, Sino Biological) (human) (UniProt P31994); assay: NGS after FACS sort of 3T3-displayed Library4 for biotin-FcγRIIB binding
[4] = target: Biotin-FcγRIIB (human FcγRIIB, Sino Biological) (human) (UniProt P31994); assay: NGS after FACS sort of 3T3-displayed LibraryMix for biotin-FcγRIIB binding
[5] = target: Biotin-FcγRIIB (human FcγRIIB, Sino Biological) (human) (UniProt P31994); assay: flow cytometry, 3T3 cells displaying the antibody, biotin-FcγRIIB + Streptavidin-APC

Biotin-FcγRIIB (human FcγRIIB, Sino Biological) (human), sequence (P31994 43-217 limits assumed): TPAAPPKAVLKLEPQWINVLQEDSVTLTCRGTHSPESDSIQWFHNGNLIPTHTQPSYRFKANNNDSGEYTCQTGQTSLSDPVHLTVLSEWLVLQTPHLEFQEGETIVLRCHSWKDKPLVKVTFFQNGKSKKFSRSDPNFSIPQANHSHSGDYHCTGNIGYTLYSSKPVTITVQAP

## human IgG2 anti-mouse CD40 surface displayed antibody (wild-type Fc)
[1]
  proportion of the cells capable of binding to FcγRIIB: 0.23%
[2]
  Enrichment factor (percentage after sorting/percentage before sorting): 0.57
[3]
  Enrichment factor (percentage after sorting/percentage before sorting): 1.49
[4]
  Enrichment factor (percentage after sorting/percentage before sorting): 0.75
[5]
  proportion of the cells binding to FcγRIIB: 0.34%
